What all share (assay): competition with [125I]glucagon, SPA, membranes of 293HEK cells expressing the receptor
Test [1] deals with T1, rat glucagon receptor (rat, UniProt P30082 28-485).
T1 construct: Cloned receptor expressed in 293HEK cells; also called rat GluR; rat GlucR

The target in test [2] is T2, mouse glucagon receptor (mouse, UniProt Q61606 28-485).
T2 construct: Cloned receptor expressed in 293HEK cells; also called murine GluR; mouse GlucR
T2 chain: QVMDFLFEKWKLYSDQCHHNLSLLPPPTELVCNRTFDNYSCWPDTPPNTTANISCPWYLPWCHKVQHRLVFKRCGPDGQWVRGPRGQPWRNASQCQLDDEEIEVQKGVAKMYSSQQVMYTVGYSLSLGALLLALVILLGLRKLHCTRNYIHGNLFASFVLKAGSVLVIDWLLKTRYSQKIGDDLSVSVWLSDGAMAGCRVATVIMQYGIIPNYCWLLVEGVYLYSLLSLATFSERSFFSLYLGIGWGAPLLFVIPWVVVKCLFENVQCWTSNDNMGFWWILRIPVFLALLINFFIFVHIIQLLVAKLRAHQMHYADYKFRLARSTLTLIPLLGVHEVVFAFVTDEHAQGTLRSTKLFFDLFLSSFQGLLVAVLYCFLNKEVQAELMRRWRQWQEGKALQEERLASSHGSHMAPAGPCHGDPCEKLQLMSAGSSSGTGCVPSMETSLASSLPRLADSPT

Test [3] has as its target T3, cynomologous monkey glucagon receptor (cynomologous monkey, UniProt P47871 27-477 (human entry)).
T3 construct: Cloned receptor expressed in 293HEK cells; also called cyno GluR; cyno GlucR
T3 chain: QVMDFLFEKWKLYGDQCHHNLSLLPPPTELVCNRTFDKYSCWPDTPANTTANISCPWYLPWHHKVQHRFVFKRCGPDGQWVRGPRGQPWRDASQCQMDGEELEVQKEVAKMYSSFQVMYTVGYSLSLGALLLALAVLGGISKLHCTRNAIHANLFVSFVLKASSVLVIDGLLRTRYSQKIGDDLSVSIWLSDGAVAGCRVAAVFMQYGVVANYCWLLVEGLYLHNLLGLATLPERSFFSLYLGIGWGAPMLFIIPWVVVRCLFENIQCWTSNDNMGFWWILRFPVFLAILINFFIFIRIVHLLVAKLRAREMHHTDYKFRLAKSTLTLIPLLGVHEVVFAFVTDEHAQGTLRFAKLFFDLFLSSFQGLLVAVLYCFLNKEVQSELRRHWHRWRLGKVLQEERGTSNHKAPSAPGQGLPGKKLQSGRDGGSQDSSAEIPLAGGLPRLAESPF

The target in test [4] is T4, human glucagon receptor (human, UniProt P47871 27-477).
T4 construct: Cloned receptor expressed in 293HEK cells; also called human GluR; human GlucR

In test [5] the target is T1, rat glucagon receptor. On the procedure: (§1) A competitive receptor/ligand binding experiment is adapted to a scintillation proximity assay (SPA) format. Incubations are performed in clear bottom, opaque 96-well microplates. Compound is serially diluted 3-fold in binding buffer consisting of 25 mM Hepes, pH 7.4, 2.5 mM CaCl₂, 1 mM MgCl₂, 0.1% fatty acid free BSA, 0.003% tween-20 and Complete^R EDTA-free protease inhibitor tablets. […] Plates are sealed with adhesive sealing tape, mixed end over end, and incubated at room temperature for 12 hours. The radioactivity bound to the receptor (in close proximity to the WGA SPA bead) is quantified on a PE Life and Analytical Sciences Trilux Microbeta plate scintillation counter and expressed as counts per minute (CPM).
The source holds these as a separate data set.

The target of test [6] is T2, mouse glucagon receptor. On the procedure:
as §1

Test [7] addresses T3, cynomologous monkey glucagon receptor. The method, then:
as §1

For test [8], the target named is T4, human glucagon receptor. On the procedure:
as §1
The source holds these as a separate data set.

Where two headings read alike, the source gives them in different places.

B1: Fab fragment of antibody example 4 (Fab4) (Fab, V domains shown)
VH: QVQLQESGPGLVKPSETLSLTCTVSGDDITSGYHDWIRQPPGKGLEWIGYISYSGSTYYSPSLKSRVTISVDTSKNQFSLKLSSVTAADTAVYYCARPPGYYGFGPYALDYWGQGTLVTVSS
VL: DIQMTQSPSSLSASVGDRVTITCSASSSVSYIHWYQQKPGKAPKLLIYTTSYLAHGVPSRFSGSGSGTDFTLTISSLQPEDFATYYCQQRSTLPPTFGGGTKVEIKR
notes: Expressed in E. coli; Fab = VL+CL and VH+CH1 (Fc absent); not shown: His tag
On to B1, for which the Ki was less than 50 nM in test [1]; less than 50 nM in test [2]; less than 50 nM in test [3]; less than 50 nM in test [4]; 3.3 nM in test [5]; 2.43 nM in test [6]. In addition, the Ki in test [7] was 9.42 nM; in test [8] it was 2.9 nM.

B2: Antibody of example 4 (Ab4) (antibody, human IgG4 S228P, kappa, F234A L235A, V domains shown)
VH: QVQLQESGPGLVKPSETLSLTCTVSGDDITSGYHDWIRQPPGKGLEWIGYISYSGSTYYSPSLKSRVTISVDTSKNQFSLKLSSVTAADTAVYYCARPPGYYGFGPYALDYWGQGTLVTVSS
VL: DIQMTQSPSSLSASVGDRVTITCSASSSVSYIHWYQQKPGKAPKLLIYTTSYLAHGVPSRFSGSGSGTDFTLTISSLQPEDFATYYCQQRSTLPPTFGGGTKVEIKR
notes: Humanized full antibody with kappa light chain and modified human IgG4 Fc
For the molecule B2, the Ki in test [1] was less than 50 nM; in test [2], less than 50 nM; in test [3] it was less than 50 nM; in test [4], less than 50 nM; in test [5], 1.24 nM; in test [6], 0.83 nM. The Ki in test [7] is 6 nM; in test [8], 1.34 nM.

By Ki is commonly meant the equilibrium dissociation constant of an inhibitor or competing ligand from its target.

Source of the values: patent US20090252727A1 (Eli Lilly, published 2009).
